Data from the supplement of paper PMC10567573.
± gives the standard deviation.

Test: protein stability index of a GFP-peptide fusion (GPS, HEK-293T) (PSI 1-6); higher = more stable
[1] = treatment: DMSO, c terminus: a fixed tail appended
[2] = treatment: MLN4924 1 uM, 8 h, c terminus: a fixed tail appended
[3] = treatment: DMSO, c terminus: native
[4] = treatment: MLN4924 1 uM, 8 h, c terminus: native
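Further: 24-mer peptide tiles fused after GFP, lentivirally expressed, FACS-sorted into six equal bins by GFP/DsRed ratio, decoded by Illumina sequencing, PSI is the read-weighted mean bin number.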

Sequence | protein stability index [1] | protein stability index [2] | protein stability index [3] | protein stability index [4]
GGYAIAVVLLQGAELLLAARLLGA [TSPAN10] | 2.81 ± 0.53 | 2.96 ± 0.32 | – | –
EGSVACLWWDPIQRLLFSGASDNS [WDFY1] | 2.36 ± 0.32 | 2.43 ± 0.1 | – | –
IVTKFYQLSATGQKLYVRLFQRKL [FAN1] | 3.6 ± 0.98 | 2.57 ± 0.51 | – | –
WKVRAEKEACQREKELPAAVHPFH [ZBED2] | 3.9 ± 0.18 | 3.93 ± 0.15 | – | –
VGSGYRMSLVKRRFATGMYLVSC [FCHO1] | – | – | 2.89 ± 0.34 | 3.03 ± 0.4
DGENVFTGQSKIYSYMSPNKCSGM [KMT5A] | 3.3 ± 0.29 | 3.3 ± 0.14 | – | –
DPGADSEKSTVVEGGEVRFNGKGK [DLX1] | 5.51 ± 0.22 | 5.58 ± 0.18 | – | –
LLYKDGFSTILHLLLGSPHPAATA [LPCAT4] | 2.71 ± 0.28 | 2.57 ± 0.54 | – | –
YEAIAKHNQVEAAWLEGRIRQEFD [TRIM35] | 3.9 ± 0.25 | 3.85 ± 0.18 | – | –
LNLGSGTGYLSTMVGLILGPFGIN [PCMTD1] | 3.33 ± 0.73 | 2.87 ± 0.49 | – | –
TSEGTLELQQRNPKAERLRWSPAQ [ZNF232] | 4.27 ± 0.19 | 4.25 ± 0.15 | – | –
LVQVESVNLQVATYSKFQPQSPDF [UFD1] | 2.32 ± 0.22 | 2.35 ± 0.32 | – | –
ILLSKEPDGVWAYNRGEHPIFVNS [SMAD6] | 2.2 ± 0.19 | 2.44 ± 0.2 | – | –
SKTNLIVNYLPQNMTQDEFKSLFG [ELAVL3] | 2.63 ± 0.28 | 2.79 ± 0.22 | – | –
QFSVVSVVAYLALAALSATISFRI [RTN1] | 2.99 ± 0.57 | 3.2 ± 0.55 | – | –
LLEKDYFGLTYRDAENQKNWLDPA [EPB41L3] | 3.1 ± 0.29 | 3.48 ± 0.29 | – | –
IFGSNKWTTEQQQRFHEICSNLVK [ARL6IP1] | 2.98 ± 0.13 | 3.03 ± 0.14 | – | –
ACGVILYILLVGYPPFWDEDQHKL [CAMK2B] | 3.05 ± 0.85 | 2.93 ± 0.38 | – | –
TGKAPSPRAAHACATVGNRGFVFG [KLHDC2] | 2.38 ± 0.11 | 2.21 ± 0.19 | – | –
AAANCHFHCIETLVTTGANVNETD [ANKRD44] | 3.99 ± 0.22 | 4.08 ± 0.15 | – | –
GQTYVDAGYEVDKIAQNLDFVNLM [CHIT1] | 3.01 ± 0.27 | 3.23 ± 0.45 | – | –
LLFMTSRVRFGQQKRYQDWFQRQY [INTS3] | 1.99 ± 0.58 | 2.24 ± 0.64 | – | –
YEKKQTLGQNDTGFSCDGTANTFR [BTBD1] | 4.23 ± 0.3 | 4.15 ± 0.14 | – | –

Sequence | protein stability index [1] | protein stability index [2] | protein stability index [3] | protein stability index [4]
ESDTDGAGGNSSSSAAMQSSCSST [CCDC6] | 5.58 ± 0.2 | 5.69 ± 0.3 | – | –
SMLLQRFSVAPHETQTQRGGEFQC [RNF180] | 3.05 ± 0.097 | 3.31 ± 0.26 | – | –
AFLKLAKQRSVCTWGKNKPGIGAV [FAN1] | 2.76 ± 0.4 | 2.3 ± 0.48 | – | –
LEKESDTPLQQVSIEEILEEQRVE [LSM1] | 5.26 ± 0.26 | 5.53 ± 0.098 | – | –
VFPIKHYQDKIRPYIQLPSHSNIT [TRIB1] | 2.5 ± 0.22 | 2.62 ± 0.22 | – | –
RVTTEQYQKAAEEVEAKFKRYESH [CHCHD3] | 4.66 ± 0.14 | 4.7 ± 0.12 | – | –
LEAQPYEAVFLRAVKLYNSGDFRS [P3H4] | 2.42 ± 0.27 | 2.23 ± 0.28 | – | –
RKPKVIECSYTSADGQRHHSKLLV [DHCR7] | 2.72 ± 0.13 | 2.93 ± 0.28 | – | –
PANSETSDLTLYLVVAVAAVSCVF [PCDHGA10] | 2.69 ± 0.61 | 2.59 ± 0.54 | – | –
ESDSCQKCEQPFFWNIKQMWDTKT [WDFY1] | 3.25 ± 0.089 | 3.19 ± 0.24 | – | –
LNVGNERYVFEAVIRWIAHDTEIR [GAN] | 2.53 ± 0.57 | 2.61 ± 0.56 | – | –
AIIGWLLTTCTSNVAASNAKLALF [INTS3] | 3.13 ± 0.21 | 3 ± 0.45 | – | –
FVQDVLFVLQAIGIPGWGFSGWIS [SCAMP3] | 3.33 ± 0.35 | 2.73 ± 0.33 | – | –
TKRSSRNPVFQDSWDTESSGSDSG [FAM104A] | 5.3 ± 0.28 | 5.22 ± 0.055 | – | –
STPKLTSRSAAQDLDRMGVMTLPS [PPFIA4] | 4.03 ± 0.28 | 3.97 ± 0.056 | – | –
SNQIPTEVRSKAEEVVSFVKKNVL [FUNDC2] | 3.59 ± 0.32 | 3.73 ± 0.18 | – | –
SSECHTSGFVGSGGWFCEGSFNGS [KRT36] | 3.23 ± 0.17 | 3.06 ± 0.37 | – | –
QLLYSPIENIQRVAAGVLCELAQD [CTNNB1] | 2.29 ± 0.24 | 2.27 ± 0.27 | – | –
EMREQYEAMAEKNRRDVEAWFFSK [KRT15] | 3.85 ± 0.13 | 3.88 ± 0.39 | – | –
PPRGPQQLSSFGSVDWLSQSSCSG [VENTX] | 3.77 ± 0.56 | 3.96 ± 0.34 | – | –
STLKTLLFFTALMITVPIGLYFTT [VMA21] | 2.45 ± 0.19 | 2.31 ± 0.19 | – | –
ALDYLQNQRIIHRDMKPDNILLDE [STK32A] | 3.14 ± 0.17 | 3.47 ± 0.45 | – | –
DAAYRKALDLAREFLPQGPVAMRV [AUH] | 2.25 ± 0.64 | 2.19 ± 0.33 | – | –

Sequence | protein stability index [1] | protein stability index [2] | protein stability index [3] | protein stability index [4]
WRRSGKYVYKPVMNQTCCPQYTIR [ATE1] | 2.03 ± 0.22 | 2.32 ± 0.32 | – | –
VHHLPLSTEKVVQETVLVEERRVV [EPB41L3] | 4.3 ± 0.14 | 4.43 ± 0.27 | – | –
HFTAMVWKNTKKMGVGKASASDGS [GLIPR2] | 3.2 ± 0.14 | 3.36 ± 0.36 | – | –
WLFGATAVALGGVALSVVIAARN [FKBP8] | – | – | 2.51 ± 0.55 | 2.59 ± 0.4
DSSHDSARASEGSDSGSDKSLEGG [SMG5] | 5.54 ± 0.31 | 5.51 ± 0.31 | – | –
ERKQALYEYARRRFTERRAQEAD [AUP1] | – | – | 4.22 ± 0.15 | 4.25 ± 0.29
EALSVPLSLCVSSHLALPAQHHWE [CLPTM1] | 2.15 ± 0.27 | 2.2 ± 0.29 | – | –
RFCCCVAVIYLGYCFCGWIVLGPY [MCOLN1] | 3.41 ± 0.26 | 3.28 ± 0.48 | – | –
EINKRTAAENEFVLLKKDVDAAYA [KRT71] | 3.76 ± 0.26 | 4.24 ± 0.24 | – | –
YRLTEHERAHKGEKPYGCSECGKA [ZNF649] | 4.55 ± 0.38 | 4.85 ± 0.36 | – | –
TASGDCYTFGSNQHGQLGTNTRRG [NEK8] | 4.56 ± 0.14 | 4.67 ± 0.15 | – | –
GYLIKILTNSNLPEEELDFFEILR [CNOT7] | 2.15 ± 0.25 | 2.23 ± 0.3 | – | –
DMCMKVPDDPEHLAARRQWRDECL [CRYL1] | 4.47 ± 0.22 | 4.56 ± 0.2 | – | –
IFDEDHDEMVIVKDIDMFSMCEHH [GCH1] | 3.16 ± 0.24 | 3.31 ± 0.13 | – | –
NDFGVFLCKLFPFLQKSSVGITVL [EDNRA] | 2.88 ± 0.52 | 3.26 ± 0.73 | – | –
PHFLRVPCWKITLFVIVPVLGPLV [MOG] | 2.9 ± 0.65 | 2.85 ± 0.3 | – | –
GYIDPEELAEIFRASGEHVTDEEI [TNNC2] | 5.01 ± 0.87 | 4.99 ± 0.17 | – | –
IAKNLVEKGILTTEKQNFLLFDMT [GOLPH3L] | 2.06 ± 0.18 | 2.15 ± 0.22 | – | –
ERRPRRVEAERPHSLIGVIRETVL [FAM189A2] | 3.64 ± 0.32 | 3.91 ± 0.41 | – | –
ATLPGIFMLLLIFFAFLHCWLNAF [SOAT2] | 2.46 ± 0.5 | 2.3 ± 0.36 | – | –
TLGGKAFHITNDEPIPFWTFLSRI [NSDHL] | 2.19 ± 0.096 | 2.28 ± 0.22 | – | –
AMYISQEEWGHQDPSKRALSRDTV [ZNF263] | 3.81 ± 0.12 | 4.06 ± 0.14 | – | –
DSEQVPQALRRLRPRTRKVKSVSP [NCF4] | 5.21 ± 0.25 | 5.11 ± 0.24 | – | –

Sequence | protein stability index [1] | protein stability index [2] | protein stability index [3] | protein stability index [4]
WGEGLHQLREALKILAERVLILET [EMID1] | 2.47 ± 0.24 | 2.78 ± 0.31 | – | –
SSTQLNELLLFAVGFIMAGTPMAL [OR3A1] | 3.05 ± 0.3 | 3.04 ± 0.61 | – | –
FSGCLNCSKVSELTERLKVLEAKM [EMID1] | 2.83 ± 0.29 | 2.926 ± 0.029 | – | –
SLAQGPDAATTDELSSLGSDSEAN [TBC1D10A] | 5.56 ± 0.19 | 5.5 ± 0.18 | – | –
HVKKLQQKVATLEKRNRQLRERVK [CCDC3] | 3.72 ± 0.26 | 4 ± 0.61 | – | –
PRTSEAQARKALFEKWEQETAAGK [SMTNL2] | 5.1 ± 0.31 | 5.02 ± 0.24 | – | –
LYGLGSGSSYVQNGTGNAYEEEAN [CNOT7] | 4.74 ± 0.2 | 4.84 ± 0.24 | – | –
FPKDTLMNLHVYISEHEHFTDFNA [CLPTM1] | 2.37 ± 0.24 | 1.99 ± 0.42 | – | –
IEKEVFPIMAKEGQLYAMELQGFW [GMPPB] | 2.77 ± 0.44 | 2.27 ± 0.37 | – | –
LQVTEDVNSSIKTFFCPNDTYNDM [CLCN6] | 3.66 ± 0.22 | 3.65 ± 0.25 | – | –
VAIFGPPNTLYEGGYFKAHIKFPI [UBE2R2] | 3.24 ± 1 | 2.95 ± 0.97 | – | –
LCAIAGVLTIALPVPVIVSNFNYF [KCNA1] | 3.23 ± 0.18 | 3.04 ± 0.32 | – | –
STELQASQILQNKKHKNSQLDKNS [FAM98B] | 4.91 ± 0.38 | 5.06 ± 0.45 | – | –
ERRRGPAAGEQLQQQHVSCQVFPE [ATP23] | 4.6 ± 0.21 | 4.72 ± 0.36 | – | –
EIPKQVKVKKLKNLKTLDSKPGVY [DENND6A] | 3.4 ± 0.34 | 3.31 ± 0.52 | – | –
VSNDSHTWVTVKNGSGDMIFEGNS [CPXM2] | 3.79 ± 0.16 | 4.32 ± 0.3 | – | –
LPELLLGALPVGSNLTSNLASLVS [RETREG3] | 2.17 ± 0.2 | 2.17 ± 0.28 | – | –
CEKYLPGYYSEKLEAIQLDGEILF [TBC1D10A] | 2.14 ± 0.19 | 2.12 ± 0.24 | – | –
KVMKQPRCGVPDVAQFVLTEGNPR [MMP1] | 3.32 ± 0.1 | 3.38 ± 0.17 | – | –
LPFKPFAIILPILLNIRVATKYV [MIA2] | – | – | 2.42 ± 0.81 | 3.36 ± 1.6
